The text below walks through data of US20190015483A1 (CSL BEHRING RECOMBINANT FACILITY, published 2019).

The experiment deals with T1, recombinant Factor VIII (CSL627, rVIII-SingleChain) (Homo sapiens (Human), UniProt P00451 20-2351).
T1 construct: also called FVIII
T1 sequence: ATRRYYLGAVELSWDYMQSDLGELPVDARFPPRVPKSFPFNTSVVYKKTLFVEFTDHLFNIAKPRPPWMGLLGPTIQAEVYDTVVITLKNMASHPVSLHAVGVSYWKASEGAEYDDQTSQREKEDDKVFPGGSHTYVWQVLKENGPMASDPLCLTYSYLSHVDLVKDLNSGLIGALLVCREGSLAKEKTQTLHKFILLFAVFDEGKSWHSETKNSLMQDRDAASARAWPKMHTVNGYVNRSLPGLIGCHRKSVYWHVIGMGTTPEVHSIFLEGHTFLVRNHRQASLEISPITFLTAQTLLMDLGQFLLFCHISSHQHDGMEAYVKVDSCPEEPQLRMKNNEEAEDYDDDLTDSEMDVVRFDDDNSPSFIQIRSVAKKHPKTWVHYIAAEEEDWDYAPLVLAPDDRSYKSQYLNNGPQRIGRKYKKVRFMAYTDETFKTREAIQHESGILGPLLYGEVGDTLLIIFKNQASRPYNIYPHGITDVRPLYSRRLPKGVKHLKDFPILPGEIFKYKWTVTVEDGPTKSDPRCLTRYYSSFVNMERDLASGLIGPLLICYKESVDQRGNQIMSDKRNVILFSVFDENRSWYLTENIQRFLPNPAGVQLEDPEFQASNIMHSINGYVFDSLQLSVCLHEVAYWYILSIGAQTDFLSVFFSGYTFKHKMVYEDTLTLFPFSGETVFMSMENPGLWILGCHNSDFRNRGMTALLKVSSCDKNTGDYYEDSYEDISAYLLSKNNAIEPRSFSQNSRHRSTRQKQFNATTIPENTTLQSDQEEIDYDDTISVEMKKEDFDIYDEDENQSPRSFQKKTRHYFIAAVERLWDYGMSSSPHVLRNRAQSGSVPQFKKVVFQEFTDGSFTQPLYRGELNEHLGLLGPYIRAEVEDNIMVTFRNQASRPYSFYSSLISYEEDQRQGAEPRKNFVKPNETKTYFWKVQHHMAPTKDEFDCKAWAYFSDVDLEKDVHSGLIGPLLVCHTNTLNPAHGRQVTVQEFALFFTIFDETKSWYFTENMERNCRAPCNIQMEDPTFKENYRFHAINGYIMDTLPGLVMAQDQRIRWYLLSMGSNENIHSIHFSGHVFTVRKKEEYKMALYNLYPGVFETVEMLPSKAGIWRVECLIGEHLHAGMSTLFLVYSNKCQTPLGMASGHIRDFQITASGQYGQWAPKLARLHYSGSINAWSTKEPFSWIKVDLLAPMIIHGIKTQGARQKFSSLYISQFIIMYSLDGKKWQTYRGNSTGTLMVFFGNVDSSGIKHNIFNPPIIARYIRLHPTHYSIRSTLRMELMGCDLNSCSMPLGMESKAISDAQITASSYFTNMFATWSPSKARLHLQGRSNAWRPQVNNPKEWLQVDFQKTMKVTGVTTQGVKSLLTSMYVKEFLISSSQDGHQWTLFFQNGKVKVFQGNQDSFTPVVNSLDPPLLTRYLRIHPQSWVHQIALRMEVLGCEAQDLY
Briefly: SPR, anti-His capture, FVIII injected, 37 C. The protocol:
Binding kinetics were investigated by surface plasmon resonance using a Biacore 4000 biosensor at 37° C. Each mutant was captured from cell culture medium to a density of 40-150 RU on a CM-5 sensor chip pre-immobilised with anti-His antibody (14,000 RU). In an initial screening study, FVIII was injected over the captured mutants for 5 minutes at 1 nM and dissociation monitored for 5 minutes.
All sensorgrams were double referenced by subtraction of signals from a reference spot (containing only immobilised anti His antibody) and from a blank injection. Binding kinetics were determined by fitting the double referenced sensorgrams to a 1:1 kinetic model.
A general note: In SPR one partner is held on a chip, and binding of the other changes the refractive index at the surface.

Substitutions are numbered along the chain they refer to. In names and notes the source's numbering stands.

B1: Hu-vWF[764-1270]-8His S764P-L765E-S766I (other)
chain: PEICRPPMVKLVCPADNLRAEGLECTKTCQNYDLECMSMGCVSGCLCPPGMVRHENRCVALERCPCFHQGKEYAPGETVKIGCNTCVCRDRKWNCTDHVCDATCSTIGMAHYLTFDGLKYLFPGECQYVLVQDYCGSNPGTFRILVGNKGCSHPSVKCKKRVTILVEGGEIELFDGEVNVKRPMKDETHFEVVESGRYIILLLGKALSVVWDRHLSISVVLKQTYQEKVCGLCGNFDGIQNNDLTSSNLQVEEDPVDFGNSWKVSSQCADTRKVPLDSSPATCHNNIMKQTMVDSSCRILTSDVFQDCNKLVDPEPYLDVCIYDTCSCESIGDCACFCDTIAAYAHVCAQHGKVVTWRTATLCPQSCEERNLRENGYECEWRYNSCAPACQVTCQHPEPLACPVQCVEGCHAHCPPGKILDELLQTCVDPEDCPVCEVAGRRFASGKKVTLNPSDPEHCQICHCDVVNLTCEACQEPGGLVVPPTDAPVSPTTLYVEDISEPPLHDFHHHHHHHH
On to B1, for which the Kd is 53.6 nM, the koff came out at 0.055 s⁻¹ and the on-rate constant (kon) was found to be 1.03e+06 M⁻¹ s⁻¹.

B2: Hu-vWF[764-1270]-8His S764P-L765G-S766I (other)
chain: B1 chain with E2G
For B2, the Kd came to 0.241 nM, the koff was 0.0122 s⁻¹ and the kon was found to be 5.04e+07 M⁻¹ s⁻¹.

B3: Hu-vWF[764-1270]-8His S764P-L765V-S766I (other)
chain: B1 chain with E2V
On to B3, for which the Kd worked out at 0.00207 nM, the koff turned out to be 0.000116 s⁻¹ and the kon was 5.62e+07 M⁻¹ s⁻¹.

B4: Hu-vWF[764-1270]-8His S766W-L809E (other)
chain: B1 chain with P1S, E2L, I3W, L46E
In the case of B4, the Kd is 0.265 nM, the koff was 0.00155 s⁻¹ and the kon is 5.84e+06 M⁻¹ s⁻¹.

B5: Hu-vWF[764-1270]-8His S764P-L765Y-S766I (other)
chain: B1 chain with E2Y
For B5, the Kd was 0.0367 nM, the koff was 0.0019 s⁻¹ and the kon came to 5.17e+07 M⁻¹ s⁻¹.

B6: Hu-vWF[764-1270]-8His S766W-L809M (other)
chain: B1 chain with P1S, E2L, I3W, L46M
With B6, the Kd was 0.117 nM, the koff is 0.000581 s⁻¹ and the kon came to 4.99e+06 M⁻¹ s⁻¹.

B7: Hu-vWF[764-1270]-8His S766W-L809I (other)
chain: B1 chain with P1S, E2L, I3W, L46I
As to B7, the Kd is 0.103 nM, the koff is 0.000541 s⁻¹ and the kon worked out at 5.23e+06 M⁻¹ s⁻¹.

B8: Hu-vWF[764-1270]-8His S766W-L809R (other)
chain: B1 chain with P1S, E2L, I3W, L46R
B8: the Kd came to 0.352 nM, the koff was found to be 0.00213 s⁻¹ and the kon is 6.07e+06 M⁻¹ s⁻¹.

B9: Hu-vWF[764-1270]-8His S764P-L765T-S766I (other)
chain: B1 chain with E2T
For B9, the Kd came to 0.0287 nM, the koff came to 0.00331 s⁻¹ and the kon stood at 1.15e+08 M⁻¹ s⁻¹.

B10: Hu-vWF[764-1270]-8His S766W-L809N (other)
chain: B1 chain with P1S, E2L, I3W, L46N
Regarding B10, the Kd was 0.369 nM, the koff was 0.00227 s⁻¹ and the kon is 6.15e+06 M⁻¹ s⁻¹.

B11: Hu-vWF[764-1270]-8His S764P-L765W-S766I (other)
chain: B1 chain with E2W
As to B11, the Kd was found to be 0.132 nM, the koff is 0.000146 s⁻¹ and the kon turned out to be 1.11e+06 M⁻¹ s⁻¹.

B12: Hu-vWF[764-1270]-8His S764P-L765R-S766I (other)
chain: B1 chain with E2R
As to B12, the Kd is 0.218 nM, the koff is 0.0173 s⁻¹ and the kon was found to be 7.96e+07 M⁻¹ s⁻¹.

B13: Hu-vWF[764-1270]-8His S766W-L809F (other)
chain: B1 chain with P1S, E2L, I3W, L46F
As for B13, the Kd amounted to 0.228 nM, the koff stood at 0.000744 s⁻¹ and the kon is 3.26e+06 M⁻¹ s⁻¹.

B14: Hu-vWF[764-1270]-8His S764P-L765M-S766I (other)
chain: B1 chain with E2M
B14: the Kd worked out at 0.00241 nM, the koff is 0.000137 s⁻¹ and the kon was 5.69e+07 M⁻¹ s⁻¹.

B15: Hu-vWF[764-1270]-8His S764P-L765I-S766I (other)
chain: B1 chain with E2I
As for B15, the Kd came out at 1.62 nM, the koff was determined as 0.0103 s⁻¹ and the kon was found to be 6.34e+06 M⁻¹ s⁻¹.

B16: Hu-vWF[764-1270]-8His S764P-L765K-S766I (other)
chain: B1 chain with E2K
Take B16: the Kd worked out at 0.0218 nM, the koff was found to be 0.0015 s⁻¹ and the kon is 6.88e+07 M⁻¹ s⁻¹.

B17: Hu-vWF[764-1270]-8His S766W-L809H (other)
chain: B1 chain with P1S, E2L, I3W, L46H
Take B17: the equilibrium dissociation constant (Kd) was 0.397 nM, the koff worked out at 0.00114 s⁻¹ and the kon was determined as 2.87e+06 M⁻¹ s⁻¹.

B18: Hu-vWF[764-1270]-8His S766W-L809A (other)
chain: B1 chain with P1S, E2L, I3W, L46A
Turning to B18, the Kd amounted to 0.258 nM, the off-rate constant (koff) amounted to 0.00115 s⁻¹ and the kon amounted to 4.45e+06 M⁻¹ s⁻¹.

B19: Hu-vWF[764-1270]-8His S766W-L809T (other)
chain: B1 chain with P1S, E2L, I3W, L46T
Regarding B19, the Kd was found to be 0.161 nM, the koff is 0.00141 s⁻¹ and the kon stood at 8.72e+06 M⁻¹ s⁻¹.

B20: Hu-vWF[764-1270]-8His S766W-L809S (other)
chain: B1 chain with P1S, E2L, I3W, L46S
Turning to B20, the Kd is 0.22 nM, the koff stood at 0.00144 s⁻¹ and the kon came out at 6.54e+06 M⁻¹ s⁻¹.

B21: Hu-vWF[764-1270]-8His S764P-L765H-S766I (other)
chain: B1 chain with E2H
As to B21, the Kd was found to be 0.0424 nM, the koff is 6.6e-05 s⁻¹ and the kon was found to be 1.56e+06 M⁻¹ s⁻¹.

B22: Hu-vWF[764-1270]-8His S766W-L809Q (other)
chain: B1 chain with P1S, E2L, I3W, L46Q
On to B22, for which the Kd was found to be 0.212 nM, the koff was found to be 0.00113 s⁻¹ and the kon is 5.33e+06 M⁻¹ s⁻¹.

B23: Hu-vWF[764-1270]-8His S766W-L809G (other)
chain: B1 chain with P1S, E2L, I3W, L46G
As to B23, the Kd is 0.363 nM, the koff is 0.00226 s⁻¹ and the kon is 6.21e+06 M⁻¹ s⁻¹.

B24: Hu-vWF[764-1270]-8His S764P-L765Q-S766I (other)
chain: B1 chain with E2Q
Consider B24, for which the Kd was found to be 0.248 nM, the koff was 0.000286 s⁻¹ and the kon turned out to be 1.15e+06 M⁻¹ s⁻¹.

B25: Hu-vWF[764-1270]-8His S766W-L809P (other)
chain: B1 chain with P1S, E2L, I3W, L46P
Turning to B25, the binding result was “no binding”.

B26: Hu-vWF[764-1270]-8His S766W-L809D (other)
chain: B1 chain with P1S, E2L, I3W, L46D
B26: the Kd stood at 0.425 nM, the koff was determined as 0.0019 s⁻¹ and the kon worked out at 4.46e+06 M⁻¹ s⁻¹.

B27: Hu-vWF[764-1270]-8His S766W-L809K (other)
chain: B1 chain with P1S, E2L, I3W, L46K
Turning to B27, the Kd was 0.219 nM, the koff was found to be 0.00153 s⁻¹ and the association rate constant (kon) was determined as 7e+06 M⁻¹ s⁻¹.

A word on the Kd: it is a measure of binding affinity in units of concentration. What is called koff is the rate constant with which the complex falls apart. What is called kon is the rate constant with which the complex forms.
